Measurements reported in patent US20160130575, “SCREENING OF NUCLEIC ACID AGENTS VIA PARTICLE DISPLAY” (THE REGENTS OF THE UNIVERSITY OF CALIFORNIA, published 2016).

Experiments:
[1] = target: Apolipoprotein E3 (ApoE3) (Homo sapiens, UniProt P02649 P02649:19-317); test: flow; FP-only particle negative control, 3 nM ApoE; settings: tags: His6; biotinylated (NHS-PEO4); R&D Systems
[2] = target: Plasminogen activator inhibitor-1 (PAI-1) (Homo sapiens, UniProt P05121 P05121:24-402); test: flow; FP-only particle negative control, 1 nM PAI-1; settings: tags: His6; biotinylated (NHS-PEO4); Millipore
Chain of Plasminogen activator inhibitor-1 (PAI-1) (P05121 24-402, one chain of several): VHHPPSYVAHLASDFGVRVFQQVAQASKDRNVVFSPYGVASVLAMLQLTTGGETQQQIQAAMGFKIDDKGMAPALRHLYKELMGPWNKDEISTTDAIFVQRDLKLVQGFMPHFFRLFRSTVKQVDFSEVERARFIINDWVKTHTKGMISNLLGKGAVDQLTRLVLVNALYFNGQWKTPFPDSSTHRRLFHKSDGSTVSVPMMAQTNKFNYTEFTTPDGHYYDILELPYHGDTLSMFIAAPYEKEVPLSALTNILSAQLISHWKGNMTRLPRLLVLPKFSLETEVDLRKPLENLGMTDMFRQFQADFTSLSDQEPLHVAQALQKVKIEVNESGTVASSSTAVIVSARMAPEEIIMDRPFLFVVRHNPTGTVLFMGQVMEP

alpha-thrombin = alpha-thrombin (Homo sapiens, UniProt P00734;P00734 P00734:328-363,P00734:364-622); test: flow; FP-only particle negative control, 20 pM thrombin
[3] = target: 4-1BB/TNFRSF9/CD137 Fc chimera (Homo sapiens, UniProt Q07011 Q07011:24-186); test: flow; FP-only particle negative control, 4 nM 4-1BB; settings: tags: Fc fusion; His6; biotinylated (NHS-PEO4); R&D Systems; chain copies: 2
Chain of 4-1BB/TNFRSF9/CD137 Fc chimera (Q07011 24-186, change not shown, one chain of several): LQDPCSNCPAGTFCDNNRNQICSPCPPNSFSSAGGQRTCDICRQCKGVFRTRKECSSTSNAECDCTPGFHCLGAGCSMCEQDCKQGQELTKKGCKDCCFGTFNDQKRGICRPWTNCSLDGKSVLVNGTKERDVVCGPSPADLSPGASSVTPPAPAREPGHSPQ

Measured: binding result

Chain of Apolipoprotein E3 (ApoE3) (P02649 19-317, one chain of several): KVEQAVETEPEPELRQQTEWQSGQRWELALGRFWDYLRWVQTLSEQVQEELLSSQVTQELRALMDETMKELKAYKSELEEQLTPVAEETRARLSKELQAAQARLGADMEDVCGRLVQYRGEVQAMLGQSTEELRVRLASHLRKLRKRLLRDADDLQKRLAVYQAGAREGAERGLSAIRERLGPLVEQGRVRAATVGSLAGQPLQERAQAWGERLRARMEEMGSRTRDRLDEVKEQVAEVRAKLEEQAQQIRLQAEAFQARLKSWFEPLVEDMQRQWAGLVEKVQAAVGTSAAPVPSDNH

AGCAGCACAGAGGTCAGATG (ssDNA, 5'-amino-PEG18, coupled to magnetic particle) [Forward primer (FP) control]
no binding: all assays above
